Assay results as given in IntAct's records for PubMed 24469404.

B1: TERF1-interacting nuclear factor 2 (Mus musculus), Q9QXG9 (parent)
chain: MAPPPGVGPASLRFAAAASWLVVRRRRVEHFPKVVEFLQSLRAAAPGLVCYRHHERLCMSLKAKVVVELILQARPWDQVLNALKHHFPAESRTTKEDRKLLEARENFCLLVKHLSEDPPSSLQELEQDYGESFLVAMEKLLFEYLCQLEKALPPVRAQELQDALSWSQPGSFITSSVALHQYGMDMGWTFPESSTSGSGNLIEPMEESPHQQTRPAFHSPLPKAKLGPHQPASLEHPEHLAGHRFNLAPLGKRKSRSHWTSAKACHKERPTVMLLPFRNMGLPAQDLSNPKSREEPGAASAASVGTEPVCTEEAKTPSRPLGKRALEETPPDSPAASRRTV
partner: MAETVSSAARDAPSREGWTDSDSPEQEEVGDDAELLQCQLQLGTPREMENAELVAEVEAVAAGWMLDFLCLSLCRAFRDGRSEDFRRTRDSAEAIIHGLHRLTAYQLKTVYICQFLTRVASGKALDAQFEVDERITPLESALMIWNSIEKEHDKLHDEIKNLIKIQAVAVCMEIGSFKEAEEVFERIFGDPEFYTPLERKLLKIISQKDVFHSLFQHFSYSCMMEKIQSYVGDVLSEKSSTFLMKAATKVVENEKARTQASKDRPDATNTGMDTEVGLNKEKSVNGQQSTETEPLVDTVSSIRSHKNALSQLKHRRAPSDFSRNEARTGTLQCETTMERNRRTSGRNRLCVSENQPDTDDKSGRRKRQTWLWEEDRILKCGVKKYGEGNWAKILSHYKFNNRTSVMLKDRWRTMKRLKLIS

Variants of: B1
Details: with terf1_mouse Terf1, P70371

Row | Variant | effect of a mutation on the interaction
1 | L247E | disrupting interaction
